Measurements taken from publication PMC5737863, “Entirely enzymatic nanofabrication of DNA–protein conjugates”.

Experiments:
[1] = target: HER2 (UniProt P04626 23-652); experiment: bead pull-down, GFP fluorescence; aptamer conjugated to mVirD2-GFP; PBS, room temperature; Conjugation/EMSA: TKM buffer (50 mM Tris-HCl pH 8, 150 mM KCl, 1 mM MgCl2, 10% glycerol), 37 C, 1 h, 10% native PAGE; HER2 beads: PBS, room temperature, 15 min; settings: protein: commercial; tags: Fc; label: GFP (via conjugated protein)
[2] = target: T1, mVirD2 (Agrobacterium tumefaciens (from …, UniProt P06668 1-204)); experiment: denaturing PAGE and SDS-PAGE shift; covalent conjugate; Conjugation/EMSA: TKM buffer (50 mM Tris-HCl pH 8, 150 mM KCl, 1 mM MgCl2, 10% glycerol), 37 C, 1 h, 10% native PAGE; HER2 beads: PBS, room temperature, 15 min; settings: protein: recombinant; tags: N-terminal 6xHis
T1 sequence: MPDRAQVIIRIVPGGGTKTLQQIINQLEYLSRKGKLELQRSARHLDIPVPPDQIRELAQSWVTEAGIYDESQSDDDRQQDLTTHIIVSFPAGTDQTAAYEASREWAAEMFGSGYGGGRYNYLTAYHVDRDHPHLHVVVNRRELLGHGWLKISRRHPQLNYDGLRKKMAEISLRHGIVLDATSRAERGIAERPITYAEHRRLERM

[3] = target: T2, mVirD2-GFP (Agrobacterium tumefaciens (from …, UniProt P06668 1-204)); experiment: denaturing PAGE shift; covalent conjugate; Conjugation/EMSA: TKM buffer (50 mM Tris-HCl pH 8, 150 mM KCl, 1 mM MgCl2, 10% glycerol), 37 C, 1 h, 10% native PAGE; HER2 beads: PBS, room temperature, 15 min; settings: protein: recombinant; tags: N-terminal 6xHis
T2 sequence: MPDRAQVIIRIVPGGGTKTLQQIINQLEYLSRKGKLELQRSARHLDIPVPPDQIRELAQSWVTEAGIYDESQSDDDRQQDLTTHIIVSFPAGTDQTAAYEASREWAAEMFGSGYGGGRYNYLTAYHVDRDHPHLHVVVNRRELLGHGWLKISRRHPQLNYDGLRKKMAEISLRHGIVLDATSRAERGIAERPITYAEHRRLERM

[4] = target: T1, mVirD2; experiment: EMSA; apparent Kd; 1 mM Mg2+; covalent conjugation; Conjugation/EMSA: TKM buffer (50 mM Tris-HCl pH 8, 150 mM KCl, 1 mM MgCl2, 10% glycerol), 37 C, 1 h, 10% native PAGE; HER2 beads: PBS, room temperature, 15 min; settings: protein: recombinant; tags: N-terminal 6xHis; label: 3' Cy3
[5] = target: T1, mVirD2; experiment: EMSA; 1 mM Mg2+; higher conjugate yield than T1; Conjugation/EMSA: TKM buffer (50 mM Tris-HCl pH 8, 150 mM KCl, 1 mM MgCl2, 10% glycerol), 37 C, 1 h, 10% native PAGE; HER2 beads: PBS, room temperature, 15 min; settings: protein: recombinant; tags: N-terminal 6xHis; label: 3' Cy3
[6] = target: T1, mVirD2; experiment: EMSA; non-covalent; no nicking; Conjugation/EMSA: TKM buffer (50 mM Tris-HCl pH 8, 150 mM KCl, 1 mM MgCl2, 10% glycerol), 37 C, 1 h, 10% native PAGE; HER2 beads: PBS, room temperature, 15 min; settings: protein: recombinant; tags: N-terminal 6xHis; single-stranded

B1: HeA2_3 aptamer, nicked and conjugated to mVirD2-GFP (ssDNA)
DNA: CCAGTCAGTAGGGAAGAGAAGGACATATGATTCTAAAAGGATTCTTCCCAAGGGGATCCAATTCAAACAGC
modifications: 5' end covalently linked to mVirD2-GFP Tyr29
binding result [1]: binds

B2: MOSIC HeA2_3 with mVirD2 site (ssDNA)
DNA: GCTCAAATTACAACGGTATATATCCTGCCAGTCAGTAGGGAAGAGAAGGACATATGATTCTAAAAGGATTCTTCCCAAGGGGATCCAATTCAAACAGC
binding result [2]: binds
binding result [3]: binds

GCTCAAATTACAACGGTATATATCCTGCCAGTCAG (ssDNA) [T1 (VirTarget)]
Kd [4]: 468 ± 68 nM

GCTCAAATTACAACGGTATATATCCTGCCAGTCAG (XNA, phosphorothioate bonds at underlined bases (underline lost in text)) [PS-T1VirTarget]
binding result [5]: binds

B3: ss Cut site RNA (mixed)
DNA: GCTCAAATTACAACGGTATATATCCTGCCAGTCAG
modifications: DNA-RNA chimera; AT-rich binding sequence is DNA, cut site is RNA (bold lost in text)
binding result [6]: binds
